The text below walks through data of publication PMC7846482 (The Journal of Biological Chemistry, 2021).

Common to all, as to conditions: both partners purified
For test [1], the target named is T1, SARS-CoV-2 spike receptor-binding domain (RBD) glycoprotein from the mammalian expression system (SARS-CoV-2 Wuhan-Hu-1, UniProt P0DTC2). As to the kind of experiment: western blotting. (In general: Immunoblotting shows a protein as a band on a membrane.)
Test [2] deals with T1, SARS-CoV-2 spike receptor-binding …. As to the kind of experiment: co-IP.
The target is the same in test [3]. The test is described as follows: ELISA.

B1: mouse anti-SARS-CoV-2 spike monoclonal antibody clone R52 (antibody, V domains shown)
VH: QIQLVQSGPELKKPGETVKISCKASGYTFTNYGMNWVKQAPGNGLRWMGWINTYTREPSYAADFKGRFAFSLETSARAAYLQINNLKNEDTATYFCARNGAMDYWGQGTSVTVSS
VL: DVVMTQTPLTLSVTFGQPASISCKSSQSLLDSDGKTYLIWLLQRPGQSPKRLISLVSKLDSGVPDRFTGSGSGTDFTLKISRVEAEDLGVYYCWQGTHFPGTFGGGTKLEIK
As to B1, the binding result in test [1] is “binds”.

B2: mouse anti-SARS-CoV-2 spike monoclonal antibody clone R31 (antibody, V domains shown)
VH: QVQLQQSGAELVRPGTSVKISCKASYTFTNYWLAWVKQRPGHGLEWIGDIYPGGAYTNFNEKFKGKATLTADTSSSTAYMQLSSLTSEDSAVYFCARDGHYGYAMDYWGQGTSVTVSS
VL: DIVMTQAAFSNPVTLGTSASISCRSSKSLLHSNGITYLYWYLQKPGQSPQLLIYQMSDLASGVPDRFSSSGSGTDFTLRISRVEAEDVGVYYCAQNLELPRTFGGGIKLEIK
For the molecule B2, the binding result in test [1] is “binds”.

B3: mouse anti-SARS-CoV-2 spike monoclonal antibody clone S3D8 (antibody, V domains shown)
VH: QVQLQQSGAELVKPGASVKLSCKASGYTFTSYYMYWMKQRPGQGLEWIGEINPSNGGTNFNEKFKSKATLTVDKSSSTAYMQLSSLTSEDSAVYYCTIFITRDAMDYWGQGTSVTVSS
VL: QIVLTQSPAIMSASPGEKVTLTCSASSSVSSSYLFWYQQKPGSSPKLWIYTTSNLASGVPARFSGSGSGTSYSLTISSMEAEDAASYFCHQWSSYPPTFGAGTKLELK
For B3, the binding result in test [2] is “binds”.

B4: mouse anti-SARS-CoV-2 spike monoclonal antibody clone S1D7 (antibody, V domains shown)
VH: QVQLQQSGAELVKPGASVKLSCKASGYTFTSYYIYWMKQRPGQGLEWIGEINPNNGGTNFNEKFKSKATLTVDKSSSTAYMQLSSLTSEDSAVYYCTRGHSDYWGQGTTLTVSS
VL: DIVLTQSPASLAVSLGQRATISCRASESVEYYGTGLMQWYQQKPGQPPKLLIYAASNVESGVPARFSGSGSGTDFSLNIHPVEEDDIAMYFCQQTRKVPYTFGGGTKLEIK
On to B4, for which the binding result in test [2] is listed as “binds”.

B5: mouse anti-SARS-CoV-2 spike monoclonal antibody clone R22 (antibody, V domains shown)
VH: EVQLQQSGPELVRPGASVKISCKTSGYTFTEYIIHWVKQSHGKSLEWIGGIDPNNGDTSYNQKFKGKASLTVDKSSSTAYMELRSLTSDDSAVYYCARLDFDYWGQGTTLTVSS
VL: DIVMTQSHKFMSTSVGDRVSITCKASQDVRTAVAWYQQKPGQSPKLLIYWASTRYTGVPDRFTGSGSGTDYTLTISSVQAEDLALYYCQQHDSTPLTFGAGTKLELK
B5: in test [1], the binding result was “binds”.

B6: mouse anti-SARS-CoV-2 spike monoclonal antibody clone R15 (antibody, V domains shown)
VH: QIQLVQSGPELKKPGETVKISCKASGYTFTKYGINWVKQAPGKDLKWMGWINTYTGEPAYGDDFKGRFAFSLETSTNTAYLQINNFKNEDTATYFCARNGAMDYWGQGTSVTVSS
VL: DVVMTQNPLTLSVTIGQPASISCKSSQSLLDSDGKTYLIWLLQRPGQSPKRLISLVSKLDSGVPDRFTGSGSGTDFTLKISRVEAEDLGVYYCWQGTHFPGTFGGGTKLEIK
B6: the binding result in test [3] is listed as “binds”.
